In this test the target is T1, low-density lipoprotein receptor-related protein 6 (LRP6) (UniProt O75581 20-1370, limits assumed).
T1 construct: also called LRP6 receptor
T1 sequence (looked up): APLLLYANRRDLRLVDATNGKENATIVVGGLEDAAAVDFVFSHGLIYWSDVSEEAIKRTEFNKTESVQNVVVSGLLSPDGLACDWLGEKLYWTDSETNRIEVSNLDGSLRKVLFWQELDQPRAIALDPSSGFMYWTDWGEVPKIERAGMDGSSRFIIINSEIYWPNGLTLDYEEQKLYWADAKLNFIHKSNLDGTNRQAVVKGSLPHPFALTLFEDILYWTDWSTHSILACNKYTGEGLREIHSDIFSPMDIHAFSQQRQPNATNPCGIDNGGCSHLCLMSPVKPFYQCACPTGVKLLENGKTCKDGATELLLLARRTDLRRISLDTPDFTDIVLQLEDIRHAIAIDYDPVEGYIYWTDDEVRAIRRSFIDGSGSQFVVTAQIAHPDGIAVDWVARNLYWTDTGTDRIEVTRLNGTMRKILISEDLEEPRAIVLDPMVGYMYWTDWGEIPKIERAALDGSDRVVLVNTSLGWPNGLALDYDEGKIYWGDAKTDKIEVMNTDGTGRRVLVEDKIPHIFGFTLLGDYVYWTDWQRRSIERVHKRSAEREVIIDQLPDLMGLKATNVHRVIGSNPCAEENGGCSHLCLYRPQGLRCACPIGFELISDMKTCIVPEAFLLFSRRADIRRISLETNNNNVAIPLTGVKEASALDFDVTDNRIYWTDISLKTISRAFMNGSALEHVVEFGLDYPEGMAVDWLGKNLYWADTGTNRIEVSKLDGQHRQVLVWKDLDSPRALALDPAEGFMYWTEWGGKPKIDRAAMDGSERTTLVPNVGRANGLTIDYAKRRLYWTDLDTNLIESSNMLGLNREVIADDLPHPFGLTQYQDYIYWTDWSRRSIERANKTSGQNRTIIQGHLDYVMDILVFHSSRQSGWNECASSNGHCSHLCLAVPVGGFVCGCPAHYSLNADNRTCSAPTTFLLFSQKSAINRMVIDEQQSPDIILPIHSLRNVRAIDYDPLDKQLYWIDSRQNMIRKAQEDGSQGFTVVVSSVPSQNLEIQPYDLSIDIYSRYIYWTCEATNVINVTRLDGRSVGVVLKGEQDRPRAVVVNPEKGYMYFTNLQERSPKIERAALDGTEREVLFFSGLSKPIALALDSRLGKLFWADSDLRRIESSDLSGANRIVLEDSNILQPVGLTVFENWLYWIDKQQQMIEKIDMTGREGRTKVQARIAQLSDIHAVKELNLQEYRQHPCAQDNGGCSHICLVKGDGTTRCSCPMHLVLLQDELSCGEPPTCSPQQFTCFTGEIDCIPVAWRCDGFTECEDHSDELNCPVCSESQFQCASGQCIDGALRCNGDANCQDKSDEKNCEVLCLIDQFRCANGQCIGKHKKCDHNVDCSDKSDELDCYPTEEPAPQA
The test is described as follows: LSPR spectroscopy; peptide on nanoparticles as ligand, LRP6 as analyte at 10^-9 to 10^-6 M; sigmoid fit of plasmon shift. How it is done: In this example, the binding affinity of exemplary peptides to the LRP6 receptor was determined by performing localized surface plasmon resonance (LSPR) spectroscopy. In the LSPR spectroscopy, the response of free electrons to nanoparticles in the presence of biomolecules may be observed as changes in wavelength and intensity of absorption. A stabilized compound on the nanoparticles' surface is called a ligand, and a second free compound is called an analyte. […] Also, the LRP6 was used as the analyte because of its negative surface charge. By adding the LRP6 as the analyte in the concentration ranges of 10⁻⁹ M to 10⁻⁶ M, the wavelength changes (plasmon shift) were recorded for each concentration. In the end, the KD values of exemplary peptides were determined by calculating the sigmoid curve of wavelength changes in terms of LRP6 concentration.

Bridges are numbered along the chain shown (N, C = ends). Where no end group is shown, it is not given here.

B1: pep-4 (SEQ ID NO: 4) (peptide)
peptide: CCARHFWSKIC
modifications: disulfide 1-11
notes: Made by synthesis; Held on nanoparticles as the ligand in the LSPR assay
The Kd is a measure of binding affinity in units of concentration. Consider B1, for which the Kd was approximately 550 nM.

B2: pep-2 (SEQ ID NO: 2) (peptide)
peptide: QVCTKHRRKGSHGLEIFQRCY
notes: Held on nanoparticles as the ligand in the LSPR assay
As for B2, the dissociation constant (Kd) is approximately 470 nM.
